Numbering of substitutions follows the chain as printed.
T1: macaca IL6R-his protein (macaca mulatta)
T1 chain: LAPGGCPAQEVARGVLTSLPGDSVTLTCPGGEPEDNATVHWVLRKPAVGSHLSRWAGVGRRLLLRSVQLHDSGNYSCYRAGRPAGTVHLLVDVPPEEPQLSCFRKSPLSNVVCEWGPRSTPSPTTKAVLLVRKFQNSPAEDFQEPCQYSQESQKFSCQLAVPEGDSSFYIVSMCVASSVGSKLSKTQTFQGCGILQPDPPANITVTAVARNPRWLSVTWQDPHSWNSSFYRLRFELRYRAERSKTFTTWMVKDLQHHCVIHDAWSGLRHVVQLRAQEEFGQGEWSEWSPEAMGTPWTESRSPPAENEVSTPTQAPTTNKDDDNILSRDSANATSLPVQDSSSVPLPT

T2: recombinant human IL6R-his (human, UniProt P08887 20-365)
T2 construct: In house made; the entry includes the C-terminal His tag; also called human IL6R-his protein
T2 sequence: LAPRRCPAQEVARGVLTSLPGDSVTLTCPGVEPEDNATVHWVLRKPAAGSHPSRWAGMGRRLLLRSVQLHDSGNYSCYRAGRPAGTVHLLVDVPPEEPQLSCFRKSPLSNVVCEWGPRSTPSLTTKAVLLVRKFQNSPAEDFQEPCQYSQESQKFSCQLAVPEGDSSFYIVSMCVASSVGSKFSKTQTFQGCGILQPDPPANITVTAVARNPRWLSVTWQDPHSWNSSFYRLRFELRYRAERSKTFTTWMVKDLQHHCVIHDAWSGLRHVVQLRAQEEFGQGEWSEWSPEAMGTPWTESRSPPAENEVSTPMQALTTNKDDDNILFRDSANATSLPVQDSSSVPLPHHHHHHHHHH

B1: mouse anti-IL6R monoclonal antibody 1F7 (antibody, V domains shown)
VH: QVQLQQPGAELVKPGASVKLSCKASDYTFTSYWMHWVKQRPGQGLEWIGEINPSNGRTNYNEKFKNKATLTVDKSSSTAYVQLYSLTSEDSAVYYCARLSIHYVFDYWGQGTTLTVSS
VL: ELVLTQSPTTMAASPGEKITFTCSASSSISSNYLHWYQQKPGFSPKLLISGTSNLASGVPPRFSGSGSGTSYSLTIVTMEAEDVATYYCQQGSGIPFTFGSGTKLEIK
notes: Mouse hybridoma mAb
B2: mouse anti-IL6R monoclonal antibody 3C2 (antibody, V domains shown)
VH: QVQLQQPGTELVKPGASVKLSCKASGYTFTTYWIHWVKQRPGQGLEWIGEINPSNGRTNYNEHFKSKATLTVDKSSSTASMQLSSLTSADSAVYYCARLNTHYVFDSWGQGTTLTVSS
VL: B1 VL with L2I, F21I, S50Y, G51R, P61T, R62H, V77G
notes: Mouse hybridoma mAb
B3: mouse anti-IL6R monoclonal antibody 1A3 (antibody, V domains shown)
VH: QVQLQQPGAELVKPGASVKLSCKASGYTFTSYWMHWVKQRPAQGLEWIGEINPSNGRTNFNEKFKTKATLTVDKSSNTAYMQLSSLTSEDSAVYSCLRLNTHYVFDYWGQGTTLTVSS
VL: B1 VL with L2I, F21I, G51R, P61T, V77G, E82G
notes: Mouse hybridoma mAb purified on Protein A
B4: mouse anti-IL6R monoclonal antibody 1H7 (antibody, V domains shown)
VH: B2 VH with T31N, I34M, E46D, S54T, H63N, S80Y, A89E, V116L
VL: B1 VL with L2I, M11L, A25V, G51R, N54T, P61A, V77G, I107L
notes: Mouse hybridoma mAb
B5: mouse anti-IL6R monoclonal antibody 1D4 (antibody, V domains shown)
VH: QVQLQQPGAELVKPGASVKLSCKASGYTFTSYWMHWVKVRPGQGLEWIGEINPTNGRTNYNEDFKSKATLTVNSSSSTAYMQLSSLTSEDSAVYYCARLNTHYVFDYWGQGTTLTVSS
VL: B1 VL with L2I, T10I, M11L, A25V, S50Y, G51R, P61A, V77G
notes: Mouse hybridoma mAb
B6: mouse anti-IL6R monoclonal antibody 1G1 (antibody, V domains shown)
VH: B5 VH with N73E, L83F
VL: B1 VL with L2I, T10I, M11L, A25V, S50Y, G51R, P61A, V77G
notes: Mouse hybridoma mAb
B7: mouse anti-IL6R monoclonal antibody 1B5 (antibody, V domains shown)
VH: B5 VH with V39Q, T54S, D63N, N73D, S74K
VL: B1 VL with L2I, T10I, M11L, A25V, S50Y, G51R, P61A, V77G
notes: Mouse hybridoma mAb
B8: mouse anti-IL6R monoclonal antibody 1H9 (antibody, V domains shown)
VH: QVQLQQPGAELVKPGASVKLSCKASGYTFTSYWMHWVKLRPGQGLEWIGEINPTNGRTNYYEKFKNRATLTADKSSSTAYMQLSSLTFEDSAVYFCAKFHYSRWYFDVWGTGTTVTVSS
VL: DIVMTQSQKFMSTSVGDRVSITCKASQNVGTAVVWYQQKPGQSPKLLINPASNRYTGVPDRFTGSGSGTDFTLTISNMQSEDLADYFCQQYSSYPLTFGAGTKLELK
notes: Mouse hybridoma mAb
B9: Tocilizumab (antibody, human IgG1, kappa, V domains shown)
VH: QVQLQESGPGLVRPSQTLSLTCTVSGYSITSDHAWSWVRQPPGRGLEWIGYISYSGITTYNPSLKSRVTMLRDTSKNQFSLRLSSVTAADTAVYYCARSLARTTAMDYWGQGSLVTVSS
VL: DIQMTQSPSSLSASVGDRVTITCRASQDISSYLNWYQQKPGKAPKLLIYYTSRLHSGVPSRFSGSGSGTDFTFTISSLQPEDIATYYCQQGNTLPYTFGQGTKVEIKR
notes: In house made; also called benchmark; Actemra

Target: T1, macaca IL6R-his protein
Experiment: SPR Biacore T200; mAb captured by anti-mouse IgG on CM5, antigen in flow, 1:1 fit
Method: (§1) Un-reacted moieties on the biosensor surface were blocked with ethanolamine. […] Then, serially diluted recombinant human IL6R-his (in house made, amino acid sequence set forth in SEQ ID NO: 44) or macaca IL6R-his protein (in house made, amino acid sequence set forth in SEQ ID NO: 45), starting at 100 nM with a 2-fold serial dilution in HBS-EP⁺ buffer (provided by Biacore), was flowed onto the chip at a flow rate of 30 μL/min. The antigen-antibody association kinetics was followed for 2 minutes and the dissociation kinetics was followed for 10 minutes. The association and dissociation curves were fit to a 1:1 Langmuir binding model using BIAcore evaluation software.

Row | Kd [nM] | koff [s⁻¹] | kon [M⁻¹ s⁻¹] | Binder
1 | 0.523 | 6.46e-05 | 124000 | B1
2 | 0.977 | 0.000127 | 130000 | B2
3 | 0.328 | 4.54e-05 | 139000 | B3
4 | 0.229 | 3.14e-05 | 137000 | B4
5 | 0.6 | 7.39e-05 | 123000 | B5
6 | 0.736 | 8.85e-05 | 120000 | B6
7 | 0.609 | 7.86e-05 | 129000 | B7
8 | 1.65 | 0.000155 | 94100 | B8

target: T2, recombinant human IL6R-his; experiment: as above
Method: as §1

Row | Kd [nM] | koff [s⁻¹] | kon [M⁻¹ s⁻¹] | Binder
9 | 0.537 | 7.46e-05 | 139000 | B1
10 | 0.911 | 0.000135 | 148000 | B2
11 | 0.293 | 4.32e-05 | 148000 | B3
12 | 0.308 | 4.73e-05 | 153000 | B4
13 | 0.628 | 8.64e-05 | 138000 | B5
14 | 0.647 | 9.09e-05 | 141000 | B6
15 | 0.476 | 6.7e-05 | 141000 | B7
16 | 1.08 | 0.00012 | 112000 | B8

target: T3, human IL6R-Fc protein (human, biotin-labeled in the ELISAs (sites not given)); experiment: capture ELISA: antibody captured on anti-IgG F(ab')2 coated plate, then biotin-labeled human IL6R-Fc, streptavidin-HRP
T3 construct: In house made; also called biotin-labeled human IL6R-Fc protein
Method: For the capture ELISA, 96-well micro plates were coated with 2 μg/ml AffiniPure Goat Anti-Mouse IgG, F(ab′)₂ fragment specific (Jackson ImmunoResearch Laboratories, Inc., Cat #115-005-072) in PBS, 100 μl/well, and incubated for 2 hours at 37° C. Plates were washed once with wash buffer (PBS+0.05% v/v Tween-20, PBST) and then blocked with 200 μl/well blocking buffer (5% w/v non-fatty milk in PBST) overnight at 4° C. […] Plates containing captured anti-IL6R antibodies were incubated with biotin-labeled human IL6R-Fc protein (prepared in house, SEQ ID NO: 43, 39.5 ng/ml in 2.5% w/v non-fatty milk in PBST, 100 μl/well) for 40 minutes at 37° C., washed 4 times, and incubated with streptavidin conjugated HRP (1:10000 dilution in PBST, Jackson ImmunoResearch Laboratories, Inc., Cat #016-030-084, 100 μl/well) for 40 minutes at 37° C. After a final wash, plates were incubated with 100 μl/well ELISA substrate TMB (InnoReagents, Cat #TMB-S-002). The reaction was stopped 3-10 minutes later at room temperature with 50 μl/well 1M H₂SO₄, and the absorbance of each well was read on a microplate reader using dual wavelength mode at 450 nm for TMB and 630 nm as the reference wavelength. Then the OD (450-630) values were plotted against antibody concentration. Data was analyzed using Graphpad Prism software and EC₅₀ values were reported.
Target sequence in this assay (chain, as listed by the source limits assumed): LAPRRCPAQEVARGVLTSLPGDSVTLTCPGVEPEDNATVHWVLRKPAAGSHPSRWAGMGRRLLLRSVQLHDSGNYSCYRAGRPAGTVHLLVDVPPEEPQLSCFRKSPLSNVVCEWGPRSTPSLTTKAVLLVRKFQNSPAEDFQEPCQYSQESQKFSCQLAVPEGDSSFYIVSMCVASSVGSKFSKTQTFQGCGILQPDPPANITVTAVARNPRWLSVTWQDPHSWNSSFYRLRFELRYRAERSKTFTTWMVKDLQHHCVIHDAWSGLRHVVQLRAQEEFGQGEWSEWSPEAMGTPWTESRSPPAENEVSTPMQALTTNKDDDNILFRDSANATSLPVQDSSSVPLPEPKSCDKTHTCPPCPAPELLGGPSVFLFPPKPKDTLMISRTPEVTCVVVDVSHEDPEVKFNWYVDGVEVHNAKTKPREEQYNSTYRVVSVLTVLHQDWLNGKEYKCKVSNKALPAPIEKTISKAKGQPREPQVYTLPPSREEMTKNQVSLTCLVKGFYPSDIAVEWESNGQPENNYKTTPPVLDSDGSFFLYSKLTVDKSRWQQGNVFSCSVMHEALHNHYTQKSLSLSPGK

Row | EC50 [nM] | Binder
17 | 0.0593 | B1
18 | 0.0536 | B2
19 | 0.073 | B3
20 | 0.0436 | B4
21 | 0.0558 | B5
22 | 0.085 | B6
23 | 0.0372 | B7
24 | 0.0679 | B8

target: T3, human IL6R-Fc protein; experiment: ligand blocking ELISA: antibody pre-incubated with biotin-labeled human IL6R-Fc, added to plate-coated human IL6 (blocked ligand: human IL6)
Method: The next day, anti-IL6R antibodies or controls were diluted with biotin labeled human IL6R-Fc protein (prepared in house, SEQ ID NO: 43, 39.5 ng/ml in 2.5% w/v non-fatty milk in PBST), starting at 100 nM with a 4-fold serial dilution, and incubated at room temperature for 40 minutes. […] Plates were washed for 4 times using wash buffer, and added and incubated with 100 μl/well of streptavidin conjugated HRP (1:10000 dilution in PBST buffer, Jackson ImmunoResearch Laboratories, Inc., Cat #016-030-084) for 40 minutes at 37° C. Plates were washed again using wash buffer. Finally, TMB was added and the reaction was stopped using 1M H₂SO₄. The absorbance was read on a microplate reader using dual wavelength mode with 450 nm for TMB and 630 nm as the reference wavelength, and then the OD (450-630) values were plotted against antibody concentration. Data was analyzed using Graphpad Prism software and IC₅₀ values were reported.

Row | IC50 [nM] | Binder
25 | 0.617 | B1
26 | 0.957 | B5
27 | 2.3 | B9

— US20230167182A1 (BIOSION, published 2023)
